Experimental findings from US12723255B2, “Herbicide tolerance genes and methods of use thereof” (priority 2014, dated 2026) are described below.

Where a chain is given by its changes, count along the chain named.

The subject of one data set is transgenic maize plants. Description: trait efficacy field trials with homozygous inbred plants, CTP evaluation. The data set is classed as in vivo. Particulars: crop injury percentage. The source says:
To evaluate different chloroplast targeting peptides (CTP), plant transformation vectors were constructed, each comprising a recombinant DNA molecule optimized for monocot expression and encoding MON-HTI (SEQ ID NO: 16), MON-HT2 (SEQ ID NO:20), and MON-HT8 (SEQ ID NO:39), MON-HT9 (SEQ ID NO:42), or MON-HT10 (SEQ ID NO:45). The vectors were created using the same combination of promoter, leader, intron, and 3′-UTR, but with one of three separate CTPs (A, B, or C) or without a CTP operably linked to the protein-coding sequence. The DNA constructs were used to transform immature maize (LH244) embryos using Agrobacterium tumifaciens and standard methods known in the art. Regenerated RO transgenic plantlets were grown in the green house. The R0 plants were selfed to generate R1 homozygous seed. The R0 plants were also used as the male to cross with inbred plants containing maize event MON89034 to generate segregating F1 hybrid seed for trait efficacy field trials.
Separate trait efficacy field trials for quizalofop-P and 2,4-D were conducted at two locations each with the homozygous inbred transgenic plants (R2 or R4 generation). In these field trials, one of two herbicide treatments was used: (1) quizalofop-P (Assure II) at 0.16 lb ai/acre (2×) plus 0.25% v/v non-ionic surfactant (NIS) applied at V4 growth stage followed by the same at V8 growth stage; or (2) 2,4-D amine at 2 lb ae/acre (2×) plus 0.25% v/v non-ionic surfactant (NIS) applied to V4 followed by V8. Injury ratings (crop injury percentage at V4 (CIPV4) or V8 (CIPV8)) were taken 10 to 14 days after the V4 and V8 applications. Error was calculated using LSD (0.05).

The next data set concerns F1 hybrid maize plants. The data set can be described thus: trait efficacy field trial, quizalofop-P pressure screening, F1 hybrid. The data set is classed as in vivo. Conditions: crop injury percentage; for 4X Qizalofop-P CIPV4 / 4X Qizalofop-P CIPV8: 0.32 lb ai/acre at VE-V2, V4, V8; for 8X Qizalofop-P CIPV4 / 8X Qizalofop-P CIPV8: 0.64 lb ai/acre at VE-V2, V4, V8; for 16X Qizalofop-P CIPV4 / 16X Qizalofop-P CIPV8: 1.28 lb ai/acre at VE-V2, V4, V8. Here is the method: Separate trait efficacy field trials for quizalofop-P and 2,4-D pressure screening were conducted at one location each with F1 hybrid transgenic plants produced by crossing an inbred plant containing maize event MON89034 with an R1 plant containing MON-HT1, MON-HT2, MON-HT8, MON-HT9, and MON-HT10 with and without operably linked CTP sequences. Transgenic F1 hybrid plants containing maize events NK603×MON89034 were used for comparison as a control.
In the trait efficacy field trial for quizalofop-P tolerance, one of three herbicide treatments was used: (1) quizalofop-P (Assure II) at 0.32 lb ai/acre (4×) plus 0.25% v/v non-ionic surfactant (NIS) applied at VE-V2 growth stage followed by the same at V4 growth stage followed by the same at V8 growth stage; (2) quizalofop-P at 0.64 lb ai/acre (8×) plus 0.25% v/v NIS applied at VE-V2 growth stage followed by the same at V4 growth stage followed by the same at V8 growth stage; or (3) quizalofop-P at 1.28 lb ai/acre (16×) plus 0.25% v/v NIS applied at VE-V2 growth stage followed by the same at V4 growth stage followed by the same at V8 growth stage. Plots were visually rated as above. […] The injury rating for the control plants after all quizalofop-P application was 100%. Error was calculated using LSD (0.05).

The test system of data set [1] is mRNA transcribed from the transgene cassette. Description: Quantigene analysis of transgene mRNA expression in leaf samples. Particulars: normalized to maize housekeeping genes, average of eight samples. An excerpt:
Leaf samples were collected from the plants containing transgene cassettes encoding MON-HT1, MON-HT2, and MON-HT8 with and without CTP sequences to determine expression of the mRNA transcribed from the transgene cassette encoding the engineered proteins. Quantigene® analysis was done on the leaf sample extracts to determine mRNA expression of the transgene cassette. For these assays, the probe was to the common 3′-UTR sequence present in each expression cassette used to generate the transgenic plants. Relative expression was calculated by normalizing to maize housekeeping genes. A leaf sample was collected from each of eight plants for each construct configuration used to make the transgenic plants, and the reported relative mRNA expression data is an average of the eight samples with standard error.

Setting [2] is: CTP A, 0.16 lb ai/acre at V4, V8, LSD (0.05) = 1.45.
[3] abbreviates: CTP A, 0.16 lb ai/acre at V4, V8, LSD (0.05) = 2.2.
Where [4] appears, read: CTP A, 2 lb ae/acre at V4, V8, LSD (0.05) = 0.95.
[5] abbreviates: CTP A, 2 lb ae/acre at V4, V8, LSD (0.05) = 1.6.
[6] abbreviates: CTP B, 0.16 lb ai/acre at V4, V8.
Setting [7] is: CTP C, 0.16 lb ai/acre at V4, V8.
The mark [8] stands for this setting: no CTP, 0.16 lb ai/acre at V4, V8.

B1: MON-HT9: engineered oxygenase protein, amino acid sequence SEQ ID NO:40 (protein)
chain: MHAALTPLTNKYRFIDVQPLTGVLGAEITGVDLREPLDDSTWNEILDAFHTYQVIYFPAQQITNEQHISFSRRFGPVDPVPLLKSIEGYPEVQMIRREANESGRILGDDWHTDSTFLDAPPAAVVMRAIEVPEYGGDTGFLSMYSAWDTLSDTMKATIEGLNVVHSATRVFGSLYQAQNWRFSNTSVKVMDVDAGDRETVHPLVVSHPVTGRRALYCNQVYCQRIEGMTDAESKCLLQFLYEHATKFDFTCRVRWKKDQVLVWDNLCTMHRAVPDYAGKFRYLTRTTVAGDRPAR
Turning to B1, the “2X Quizalofop-P CIPV4” value with transgenic maize plants (setting [2]) was determined as 0. For the same molecule, in the data set with transgenic maize plants (setting [3]), the “2X Quizalofop-P CIPV8” value came to 0. Also, the “2X 2,4-D CIPV4” value in the data set with transgenic maize plants (setting [4]) is recorded as 3.75. In addition, in the data set with transgenic maize plants (setting [5]), the “2X 2,4-D CIPV8” value was determined as 1.25. In addition, in the data set with F1 hybrid maize plants (CTP A), the “4X Qizalofop-P CIPV4” value came out at 0, the “4X Qizalofop-P CIPV8” value turned out to be 5, the “8X Qizalofop-P CIPV4” value is on record as 2.5 and the “8X Qizalofop-P CIPV8” value is listed as 15. For the same molecule, in the data set with F1 hybrid maize plants (CTP A), the “16X Qizalofop-P CIPV4” value was found to be 7.5 and the “16X Qizalofop-P CIPV8” value amounted to 20.

B2: MON-HT10: engineered oxygenase protein, amino acid sequence SEQ ID NO:43 (protein)
chain: B1 chain with T21C, A59G, Q61A, S69A, R271L, A277D, R292K, A294S
As for B2, the “2X Quizalofop-P CIPV4” value in the data set with transgenic maize plants (setting [2]) was 0. Besides, the “2X Quizalofop-P CIPV8” value in the data set with transgenic maize plants (setting [3]) is given as 0. In the data set with transgenic maize plants (setting [4]), the “2X 2,4-D CIPV4” value is on record as 0. For the same molecule, the “2X 2,4-D CIPV8” value in the data set with transgenic maize plants (setting [5]) stood at 1.25. Also, in the data set on F1 hybrid maize plants (CTP A), the “4X Qizalofop-P CIPV4” value turned out to be 0, the “4X Qizalofop-P CIPV8” value stood at 5, the “8X Qizalofop-P CIPV4” value was 2.5 and the “8X Qizalofop-P CIPV8” value was 10. In the data set with F1 hybrid maize plants (CTP A), the “16X Qizalofop-P CIPV4” value is given as 5 and the “16X Qizalofop-P CIPV8” value was found to be 21.

B3: MON-HT1: engineered oxygenase protein, amino acid sequence SEQ ID NO:14 (protein)
chain: MHAALTPLTNKYRFIDVQPLTGVLGAEITGVDLREPLDDSTWNEILDAFHTYQVIYFPGQAITNEQHIAFSRRFGPVDPVPILKSIEGYPEVQMIRREANESSRFIGDDWHTDSTFLDAPPAAVVMRAIEVPEYGGDTGFLSMYSAWETLSPTMQATIEGLNVVHSATKVFGSLYQATNWRFSNTSVKVMDVDAGDRETVHPLVVTHPVTGRRALYCNQVYCQKIQGMTDAESKSLLQFLYEHATKFDFTCRVRWKKDQVLVWDNLCTMHRAVPDYAGKFRYLTRTTVAGDKPSR
With B3, the “2X Quizalofop-P CIPV4” value with transgenic maize plants (setting [2]), in the data set on transgenic maize plants (setting [6]), in the data set on transgenic maize plants (setting [7]) and with transgenic maize plants (setting [8]) was 0 in each case. For the same molecule, the “2X Quizalofop-P CIPV8” value with transgenic maize plants (setting [3]) amounted to 2.125; in the data set on transgenic maize plants (setting [6]) it was 1.75; in the data set on transgenic maize plants (setting [7]), 1.75; with transgenic maize plants (setting [8]), 1.25. The “2X 2,4-D CIPV4” value with transgenic maize plants (setting [4]) is reported as 0; in the data set with transgenic maize plants (CTP B, 2 lb ae/acre at V4, V8), 0; in the data set with transgenic maize plants (CTP C, 2 lb ae/acre at V4, V8) it was 1.25; in the data set with transgenic maize plants (no CTP, 2 lb ae/acre at V4, V8) it was 0. The “2X 2,4-D CIPV8” value in the data set on transgenic maize plants (setting [5]) is 2.5; in the data set with transgenic maize plants (CTP B, 2 lb ae/acre at V4, V8) it was 1.25; in the data set with transgenic maize plants (CTP C, 2 lb ae/acre at V4, V8), 1.25; in the data set with transgenic maize plants (no CTP, 2 lb ae/acre at V4, V8), 1.25. The “4X Qizalofop-P CIPV4” value in the data set with F1 hybrid maize plants (CTP A) amounted to 0; in the data set with F1 hybrid maize plants (CTP B), 2.5; with F1 hybrid maize plants (CTP C), 0; in the data set on F1 hybrid maize plants (no CTP), 2.5. Besides, the “4X Qizalofop-P CIPV8” value in the data set on F1 hybrid maize plants (CTP A) turned out to be 7.5; in the data set with F1 hybrid maize plants (CTP B), 5; with F1 hybrid maize plants (CTP C) it was 5; in the data set with F1 hybrid maize plants (no CTP), 10. Besides, the “8X Qizalofop-P CIPV4” value in the data set on F1 hybrid maize plants (CTP A) came to 2.5; in the data set with F1 hybrid maize plants (CTP B), 2.5; in the data set on F1 hybrid maize plants (CTP C) it was 2.5; with F1 hybrid maize plants (no CTP) it was 10. In addition, the “8X Qizalofop-P CIPV8” value with F1 hybrid maize plants (CTP A) turned out to be 10; in the data set with F1 hybrid maize plants (CTP B) it was 7.5; with F1 hybrid maize plants (CTP C) it was 10; in the data set with F1 hybrid maize plants (no CTP), 22.5. In addition, the “16X Qizalofop-P CIPV4” value was 5 with F1 hybrid maize plants (CTP A), 2.5 in the data set on F1 hybrid maize plants (CTP B), 5 in the data set with F1 hybrid maize plants (CTP C) and 22.5 in the data set with F1 hybrid maize plants (no CTP). The “16X Qizalofop-P CIPV8” value is given as 15 in the data set with F1 hybrid maize plants (CTP A), 20 with F1 hybrid maize plants (CTP B), 20 in the data set on F1 hybrid maize plants (CTP C) and 37.5 with F1 hybrid maize plants (no CTP). Further, the “Relative Expression” value turned out to be 7.80 in data set [1] (CTP A), 5.95 in data set [1] (CTP B), 3.82 in data set [1] (CTP C) and 4.31 in data set [1] (no CTP).
